Source: PMC2132950
Values belong to the substance of their own block, whether it stands above or below them.

What was measured:
[1] = target: taxol-stabilized microtubules (bovine (brain)) (UniProt Q6B856); experiment: co-sedimentation
[2] = target: kinesin heavy chain deletion mutant H810 (stop codon after amino acid 810), myc-tagged (rat) (UniProt Q2PQA9); experiment: co-IP
Sequence of UniProt Q2PQA9 (Q2PQA9 2-963, stated change not applied): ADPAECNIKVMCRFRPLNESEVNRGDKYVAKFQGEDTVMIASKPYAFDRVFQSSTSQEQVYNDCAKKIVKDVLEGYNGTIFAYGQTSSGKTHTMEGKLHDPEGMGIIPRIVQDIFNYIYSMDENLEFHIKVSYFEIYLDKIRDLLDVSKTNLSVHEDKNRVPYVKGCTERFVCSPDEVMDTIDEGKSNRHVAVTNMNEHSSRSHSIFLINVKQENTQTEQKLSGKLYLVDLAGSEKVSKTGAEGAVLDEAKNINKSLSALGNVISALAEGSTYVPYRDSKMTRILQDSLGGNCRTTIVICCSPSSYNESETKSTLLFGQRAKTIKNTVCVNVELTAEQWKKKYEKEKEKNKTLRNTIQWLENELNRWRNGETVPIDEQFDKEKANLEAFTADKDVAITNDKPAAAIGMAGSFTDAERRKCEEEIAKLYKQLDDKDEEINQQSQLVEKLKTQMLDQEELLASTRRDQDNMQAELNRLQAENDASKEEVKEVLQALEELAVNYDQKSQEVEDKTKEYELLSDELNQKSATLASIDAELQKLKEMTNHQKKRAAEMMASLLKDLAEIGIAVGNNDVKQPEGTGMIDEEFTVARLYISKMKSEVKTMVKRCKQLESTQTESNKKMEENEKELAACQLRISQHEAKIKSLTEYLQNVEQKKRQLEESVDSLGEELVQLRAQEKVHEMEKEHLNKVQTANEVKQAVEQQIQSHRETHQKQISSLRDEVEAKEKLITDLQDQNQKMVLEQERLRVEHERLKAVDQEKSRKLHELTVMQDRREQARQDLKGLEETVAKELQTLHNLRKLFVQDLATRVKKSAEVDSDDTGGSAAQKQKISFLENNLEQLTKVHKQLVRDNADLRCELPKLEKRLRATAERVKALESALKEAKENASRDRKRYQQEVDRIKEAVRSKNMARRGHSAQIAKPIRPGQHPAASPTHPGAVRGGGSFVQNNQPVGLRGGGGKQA

Sequence of UniProt Q6B856 (Q6B856 whole entry, looked up): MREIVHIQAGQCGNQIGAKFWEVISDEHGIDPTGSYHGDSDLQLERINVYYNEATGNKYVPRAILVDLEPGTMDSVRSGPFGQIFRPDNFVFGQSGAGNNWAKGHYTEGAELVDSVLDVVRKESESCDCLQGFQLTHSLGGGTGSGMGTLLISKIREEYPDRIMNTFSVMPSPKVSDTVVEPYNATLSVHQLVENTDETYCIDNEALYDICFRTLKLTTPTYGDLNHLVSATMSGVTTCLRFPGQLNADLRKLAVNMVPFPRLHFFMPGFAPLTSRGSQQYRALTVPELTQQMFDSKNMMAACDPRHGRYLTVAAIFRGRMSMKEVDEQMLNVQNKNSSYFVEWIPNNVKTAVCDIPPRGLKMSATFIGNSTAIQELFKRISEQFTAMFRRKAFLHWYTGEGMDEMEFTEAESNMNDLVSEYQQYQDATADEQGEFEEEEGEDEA

percent of HC bound to MTs [1]: 50% | percent of L176 bound to MTs [1]: 20%
Substance: HC coexpressed with the LC deletion mutant L176 (from UniProt Q2PQA9 1-963; P37285 1-176) (complex)

percent of the HC construct sedimented with MTs [1]: 90%
Substance: HC deletion mutant H810 coexpressed with LC (from UniProt Q2PQA9 1-810; P37285 1-560) (complex)

Substance: NH2-terminal 420 amino acids of human conventional kinesin heavy chain (from UniProt P33176 1-420) (domain or fragment)
tubulin concentration at half-maximal binding [1]: 0.15 mM

percent of the HC construct sedimented with MTs [1]: 50 to 95%
Substance: HC deletion mutant H891 coexpressed with LC (from UniProt Q2PQA9 1-891; P37285 1-560) (complex)

percent of LC coprecipitated [2]: 50%
Substance: kinesin light chain splice form C (rat), HA-tagged (from UniProt P37285 1-560) (natural protein)
